First the molecules themselves.
B1: CDC25A (parent)
chain: QLIDPDENKENEAFEFKKPVRPVS
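Further: lentivirally expressed fusions sorted by FACS into six bins by GFP to DsRed ratio, PSI derived from sequencing read proportions per bin multiplied by bin number.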

The variants in this data set derive from B1. Description: protein stability index of a GFP-peptide fusion (GPS, HEK-293T) (PSI 1-6); higher = more stable. Particulars: c terminus: a fixed tail appended.
For the variant QLIDPDENKENEAFEFKKRVRPVS [P19R], the protein stability index was found to be 3.85.

Consider QLIDPDENKENEAFEFKKQVRPVS [P19Q], for which the protein stability index turned out to be 4.02.

Take QLIDPDENKENEAFEFKKCVRPVS [P19C]: the protein stability index turned out to be 3.6.

As for QLIDPDENKENEAFEFKKTVRPVS [P19T], the protein stability index came out at 4.09.

QLIDPDENKENEAFEFKKVVRPVS [P19V]: the protein stability index turned out to be 4.42.

On to QLIDPDENKENEAFEFKKGVRPVS [P19G], for which the protein stability index came to 4.06.

Regarding QLIDPDENKENEAFEFKKIVRPVS [P19I], the protein stability index is 4.07.

QLIDPDENKENEAFENKKPVRPVS [F16N]: the protein stability index was found to be 4.08.

Take QLIDPDENKENEAFEVKKPVRPVS [F16V]: the protein stability index was 4.39.

Take QLIDPDENKENEAFEGKKPVRPVS [F16G]: the protein stability index was 3.76.

For QLIDPDENKENEAFEWKKPVRPVS [F16W], the protein stability index stood at 4.33.

With QLIDPDENKENEAFELKKPVRPVS [F16L], the protein stability index worked out at 4.56.

In the case of QLIDPDENKENEAFEHKKPVRPVS [F16H], the protein stability index was 4.56.

Turning to QLIDPDENKENEAFEQKKPVRPVS [F16Q], the protein stability index stood at 3.73.

Turning to QLIDPDENKENEAFEDKKPVRPVS [F16D], the protein stability index was 4.46.

Turning to QLIDPDENKENEAFECKKPVRPVS [F16C], the protein stability index was 4.6.

With QLIDPDENKENEAFEIKKPVRPVS [F16I], the protein stability index turned out to be 3.35.

On to QLIDPDENKENEAFESKKPVRPVS [F16S], for which the protein stability index came to 4.21.

Take QLIDPDENKENEAFERKKPVRPVS [F16R]: the protein stability index turned out to be 4.53.

For QLIDPDENKENEAFEEKKPVRPVS [F16E], the protein stability index was found to be 4.18.

For QLIDPDENKENEAFEYKKPVRPVS [F16Y], the protein stability index is 3.58.

For QLIDPDENKENEAFEPKKPVRPVS [F16P], the protein stability index turned out to be 3.83.

In the case of QLIDPDENKENEAFEKKKPVRPVS [F16K], the protein stability index was found to be 3.99.

Consider QLIDPDENKENEAFETKKPVRPVS [F16T], for which the protein stability index amounted to 4.48.

For QLIDPDENKENEAFEMKKPVRPVS [F16M], the protein stability index is 3.73.

For the variant QLIDPDENKENEAFEFKRPVRPVS [K18R], the protein stability index turned out to be 3.89.

As to QLIDPDENKENEAFEFKLPVRPVS [K18L], the protein stability index amounted to 4.39.

On to QLIDPDENKENEAFEFKEPVRPVS [K18E], for which the protein stability index came to 5.52.

QLIDPDENKENEAFEFKNPVRPVS [K18N]: the protein stability index worked out at 4.4.

Regarding QLIDPDENKENEAFEFKCPVRPVS [K18C], the protein stability index was 4.1.

Consider QLIDPDENKENEAFEFKDPVRPVS [K18D], for which the protein stability index stood at 4.47.

With QLIDPDENKENEAFEFKYPVRPVS [K18Y], the protein stability index was found to be 4.

In the case of QLIDPDENKENEAFEFKSPVRPVS [K18S], the protein stability index was determined as 4.55.

Take QLIDPDENKENEAFEFKMPVRPVS [K18M]: the protein stability index was 3.66.

In the case of QLIDPDENKENEAFEFKWPVRPVS [K18W], the protein stability index amounted to 3.73.

In the case of QLIDPDENKENEAFEFKFPVRPVS [K18F], the protein stability index is 4.33.

QLIDPDENKENEAFEFKHPVRPVS [K18H]: the protein stability index was 3.82.

Take QLIDPDENKENEAFEFKTPVRPVS [K18T]: the protein stability index turned out to be 4.33.

On to QLIDPDENKENEAFEFKPPVRPVS [K18P], for which the protein stability index amounted to 4.29.

QLIDPDENKENEAFEFKIPVRPVS [K18I]: the protein stability index stood at 3.97.

As to QLIDPDENKENEAFEFKAPVRPVS [K18A], the protein stability index is 3.7.

As for QLIDPDENKENEAFEFKVPVRPVS [K18V], the protein stability index was 4.23.

QLIDPDENKENEAFEFKGPVRPVS [K18G]: the protein stability index is 4.04.

For the variant QLIDPDENKENEAFEFKKPVRPYS [V23Y], the protein stability index was 3.32.

With QLIDPDENKENEAFEFKKPVRPSS [V23S], the protein stability index is 3.09.

On to QLIDPDENKENEAFEFKKPVRPRS [V23R], for which the protein stability index is 3.11.

As to QLIDPDENKENEAFEFKKPVRPDS [V23D], the protein stability index came to 4.41.

With QLIDPDENKENEAFEFKKPVRPPS [V23P], the protein stability index worked out at 3.52.

Regarding QLIDPDENKENEAFEFKKPVRPES [V23E], the protein stability index came out at 4.1.

Regarding QLIDPDENKENEAFEFKKPVRPKS [V23K], the protein stability index was determined as 3.85.

As to QLIDPDENKENEAFEFKKPVRPGS [V23G], the protein stability index is 4.05.

Regarding QLIDPDENKENEAFEFKKPVRPNS [V23N], the protein stability index was 3.51.

For QLIDPDENKENEAFEFKKPVRPFS [V23F], the protein stability index came to 3.89.

In the case of QLIDPDENKENEAFEFKKPVRPCS [V23C], the protein stability index came out at 3.9.

On to QLIDPDENKENEAFEFKKPVRPAS [V23A], for which the protein stability index worked out at 4.32.

With QLIDPDENKENEAFEFKKPVRPQS [V23Q], the protein stability index came to 4.04.

Take QLIDPDENKENEAFEFKKPVRPIS [V23I]: the protein stability index was found to be 3.43.

On to QLIDPDENKENEAFEFKKPVRPMS [V23M], for which the protein stability index turned out to be 2.46.

Regarding QLIDPDENKENEAFEFKKPVRPHS [V23H], the protein stability index stood at 4.05.

Regarding QLIDPDENKENEAFEFKKPWRPVS [V20W], the protein stability index stood at 3.59.

For QLIDPDENKENEAFEFKKPTRPVS [V20T], the protein stability index turned out to be 4.54.

As to QLIDPDENKENEAFEFKKPRRPVS [V20R], the protein stability index stood at 3.73.

For the variant QLIDPDENKENEAFEFKKPLRPVS [V20L], the protein stability index is 2.85.

As for QLIDPDENKENEAFEFKKPKRPVS [V20K], the protein stability index turned out to be 4.67.

Consider QLIDPDENKENEAFEFKKPGRPVS [V20G], for which the protein stability index worked out at 3.97.

Take QLIDPDENKENEAFEFKKPARPVS [V20A]: the protein stability index came out at 4.09.

Take QLIDPDENKENEAFEFKKPERPVS [V20E]: the protein stability index is 4.04.

As to QLIDPDENKENEAFEFKKPPRPVS [V20P], the protein stability index is 4.43.

Regarding QLIDPDENKENEAFEFKKPCRPVS [V20C], the protein stability index came to 3.61.

In the case of QLIDPDENKENEAFEFKKPSRPVS [V20S], the protein stability index was 4.

Take QLIDPDENKENEAFEFKKPQRPVS [V20Q]: the protein stability index was determined as 3.79.

Regarding QLIDPDENKENEAFEFKKPMRPVS [V20M], the protein stability index was determined as 3.82.

In the case of QLIDPDENKENEAFEFKKPHRPVS [V20H], the protein stability index came out at 4.3.

Take QLIDPDENKENEAFEFKKPFRPVS [V20F]: the protein stability index is 3.71.

Consider QLIDPDENKENEAFEFKKPNRPVS [V20N], for which the protein stability index stood at 4.63.

Take QLIDPDENKENEAFEFKKPDRPVS [V20D]: the protein stability index worked out at 4.31.

As to QLIDPDENKENEAFEFKKPIRPVS [V20I], the protein stability index is 4.

Regarding QLIDPDENKENEAFEFKKPVHPVS [R21H], the protein stability index came out at 3.85.

In the case of QLIDPDENKENEAFEFKKPVDPVS [R21D], the protein stability index stood at 4.25.

For the variant QLIDPDENKENEAFEFKKPVWPVS [R21W], the protein stability index was found to be 3.28.

QLIDPDENKENEAFEFKKPVTPVS [R21T]: the protein stability index was 4.04.

Consider QLIDPDENKENEAFEFKKPVGPVS [R21G], for which the protein stability index amounted to 4.97.

In the case of QLIDPDENKENEAFEFKKPVMPVS [R21M], the protein stability index is 3.81.

As for QLIDPDENKENEAFEFKKPVEPVS [R21E], the protein stability index amounted to 4.33.

Turning to QLIDPDENKENEAFEFKKPVPPVS [R21P], the protein stability index was 4.46.

For the variant QLIDPDENKENEAFEFKKPVVPVS [R21V], the protein stability index was 3.19.

As for QLIDPDENKENEAFEFKKPVFPVS [R21F], the protein stability index came out at 2.74.

For the variant QLIDPDENKENEAFEFKKPVNPVS [R21N], the protein stability index stood at 5.

Consider QLIDPDENKENEAFEFKKPVKPVS [R21K], for which the protein stability index was found to be 4.04.

As to QLIDPDENKENEAFEFKKPVCPVS [R21C], the protein stability index was 4.34.

Regarding QLIDPDENKENEAFEFKKPVLPVS [R21L], the protein stability index stood at 3.8.

For the variant QLIDPDENKENEAFEFKKPVIPVS [R21I], the protein stability index came to 3.39.

On to QLIDPDENKENEAFEFKKPVQPVS [R21Q], for which the protein stability index amounted to 4.67.

Take QLIDPDENKENEAFEFKKPVAPVS [R21A]: the protein stability index was determined as 3.27.

The values above are taken from the supplement of paper PMC10567573.
